Assay results: patent US20180194833A1 (H LUNDBECK A S, published 2018)

Key:
Human alpha-synuclein = Human alpha-synuclein (human, UniProt P37840 1-140); experiment: SPR (BIAcore 3000), antibody captured by goat anti-human IgG, human alpha-synuclein 3.125-100 nM as analyte
Description: Goat anti-human IgG was immobilized on the CM5 chip. […] The sensor surface was regenerated between each cycle.

Mouse alpha-synuclein = Mouse alpha-synuclein (mouse, UniProt O55042 1-140); experiment: Fortebio Octetred

binding result (Human alpha-synuclein) | binding result (Mouse alpha-synuclein) | Binder
binds | – | Comparator antibody 9E4 (antibody, human IgG1, kappa, V domains shown, also called h9E4; human 9E4) VH: EVQLVESGGGLVQPGGSLRLSCAASGFTFSNYGMSWVRQAPGKGLEWVASISSGGGSTYYPDNVKGRFTISRDNAKNSLYLQMNSLRAEDTAVYYCARGGAGIDYWGQGTLVTVSS VL: DIQMTQSPSSLSASVGDRVTITCKSIQTLLYSSNQKNYLAWFQQKPGKAPKLLIYWASIRKSGVPSRFSGSGSGTDFTLTISSLQPEDLATYYCQQYYSYPLTFGGGTKLEIKR
– | binds | GM37 (antibody, human IgG1, kappa, V domains shown, also called GM37 wild type (wt); GM37wt) VH: EVQLLESGGGLVQTGGSLRLSCAASGFTFSSYAMTWVRQAPGKGLEWVSAIRSNGDRTDYADSVKGRFTISRDNSQNTLYLQMNSLRAEDTAVYYCAKNWAPFDSWGQGTLVTVSS VL: not shown
– | binds | GM285 (antibody, human IgG1, kappa, V domains shown, also called mab285) VH: EVQLLESGGGLVQPGGSLRLSCAASGFTFSRFTMTWVRQAPGKGLEWVSAISGSGGGTSYADSVKGRLTVSRDNSKNTLYLQMNSLRAEDTAVYYCAKNWAPFDYWGQGTLVTVSS VL: not shown
